# Measured values: PMC4357707 (Nucleic Acids Research, 2015)
# Where a chain is given by its changes, count along the chain named.
# T1: HEN1 wt (Arabidopsis thaliana, UniProt Q9C5Q8 1-942)
# T1 sequence: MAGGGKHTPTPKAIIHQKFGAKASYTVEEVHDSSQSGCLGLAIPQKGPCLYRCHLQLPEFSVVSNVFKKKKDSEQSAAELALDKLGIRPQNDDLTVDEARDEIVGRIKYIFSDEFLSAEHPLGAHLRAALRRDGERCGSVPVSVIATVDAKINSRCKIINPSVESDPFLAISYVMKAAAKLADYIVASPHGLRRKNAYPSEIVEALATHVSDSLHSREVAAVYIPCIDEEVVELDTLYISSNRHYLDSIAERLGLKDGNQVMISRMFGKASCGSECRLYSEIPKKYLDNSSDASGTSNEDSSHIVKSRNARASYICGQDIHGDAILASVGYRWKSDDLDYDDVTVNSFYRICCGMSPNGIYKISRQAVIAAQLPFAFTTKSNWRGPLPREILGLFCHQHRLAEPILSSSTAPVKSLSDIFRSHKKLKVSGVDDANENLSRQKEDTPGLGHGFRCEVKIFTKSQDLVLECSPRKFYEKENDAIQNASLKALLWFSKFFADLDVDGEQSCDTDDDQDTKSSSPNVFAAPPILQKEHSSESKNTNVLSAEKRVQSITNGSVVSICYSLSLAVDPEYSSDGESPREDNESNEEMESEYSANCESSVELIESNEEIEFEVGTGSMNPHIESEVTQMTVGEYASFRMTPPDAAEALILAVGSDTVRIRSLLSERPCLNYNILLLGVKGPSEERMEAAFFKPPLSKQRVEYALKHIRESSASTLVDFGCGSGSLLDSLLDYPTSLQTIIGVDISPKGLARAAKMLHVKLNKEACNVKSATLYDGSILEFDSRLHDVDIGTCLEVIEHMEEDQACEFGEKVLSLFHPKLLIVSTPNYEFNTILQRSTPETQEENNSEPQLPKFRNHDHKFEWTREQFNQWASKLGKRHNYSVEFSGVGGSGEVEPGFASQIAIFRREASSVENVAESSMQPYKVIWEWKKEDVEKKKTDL
# T2: HEN1-RHK389,397,477AAA (Arabidopsis thaliana, UniProt Q9C5Q8 1-942, R389A;H397A;K477A)
# T2 sequence: T1 sequence with R389A, H397A, K477A
# B1: miR173/miR173* (dsRNA)
# RNA 1: UUCGCUUGCAGAGAGAAAUCAC
# RNA 2: GAUUCUCUGUGUAAGCGAAAG
# Experiments:
# [1] = target: T1, HEN1 wt; assay: EMSA
# [2] = target: T2, HEN1-RHK389,397,477AAA; assay: EMSA
binder,measurement,setting,value
B1,Kd,[1],0.32 ± 0.03 nM
same,Kd,[2],65 ± 12 nM
